Assay results published in paper PMC4068106.

Target: T1, human C-reactive protein (GMP preparation) (human), P02741
T1 chain: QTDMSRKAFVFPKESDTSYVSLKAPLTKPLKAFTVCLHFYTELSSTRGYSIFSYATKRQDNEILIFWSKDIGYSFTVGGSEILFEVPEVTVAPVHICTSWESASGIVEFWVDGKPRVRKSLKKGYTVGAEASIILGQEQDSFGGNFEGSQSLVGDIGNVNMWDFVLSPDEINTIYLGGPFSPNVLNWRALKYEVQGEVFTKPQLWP
Test: SEC; 0.02 mg in 100 uL on Superdex 200, 0.5 mL/min, 10 mM Tris, 140 mM NaCl, 2 mM CaCl2, pH 8.0; self-assembly of CRP
Settings: remark: other sources report otherwise

stoichiometry N: 5
B1: human C-reactive protein (GMP preparation), P02741 19-224 (natural protein)
chain: QTDMSRKAFVFPKESDTSYVSLKAPLTKPLKAFTVCLHFYTELSSTRGYSIFSYATKRQDNEILIFWSKDIGYSFTVGGSEILFEVPEVTVAPVHICTSWESASGIVEFWVDGKPRVRKSLKKGYTVGAEASIILGQEQDSFGGNFEGSQSLVGDIGNVNMWDFVLSPDEINTIYLGGPFSPNVLNWRALKYEVQGEVFTKPQLWP
modifications: here or on the partner: N-terminal PCA; N-terminal PCA
